In paper PMC10397247:
Each block holds one binder with its values, some of them ahead of it.

What was measured:
Assay in all cases: two-hybrid library CCNG1;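 also: natural log of median RNA to DNA barcode read ratio; higher means stronger binding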
4H953-bN = target: T1, 4H953-bN
T1 chain: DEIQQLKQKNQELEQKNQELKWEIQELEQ

4H683-bN = target: T2, 4H683-bN
T2 chain: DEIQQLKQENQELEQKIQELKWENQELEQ

4H797-bN = target: T3, 4H797-bN
T3 chain: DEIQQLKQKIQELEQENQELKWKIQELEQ

4H918-bN = target: T4, 4H918-bN
T4 chain: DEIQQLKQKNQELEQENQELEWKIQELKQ

4H4073-bN = target: T5, 4H4073-bN
T5 chain: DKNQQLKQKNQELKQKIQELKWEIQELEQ

4H968-bN = target: T6, 4H968-bN
T6 chain: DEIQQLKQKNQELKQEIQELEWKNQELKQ

4H855-bN = target: T7, 4H855-bN
T7 chain: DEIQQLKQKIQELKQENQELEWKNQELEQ

4H575-bN = target: T8, 4H575-bN
T8 chain: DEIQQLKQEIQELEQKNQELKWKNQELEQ

4H457-bN = target: T9, 4H457-bN
T9 chain: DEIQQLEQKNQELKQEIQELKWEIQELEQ

4H780-bN = target: T10, 4H780-bN
T10 chain: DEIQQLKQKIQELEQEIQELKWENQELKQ

4H754-bN = target: T11, 4H754-bN
T11 chain: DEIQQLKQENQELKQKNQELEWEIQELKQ

O9-bH = target: T12, O9-bH; conditions: mean of both orientations
T12 chain: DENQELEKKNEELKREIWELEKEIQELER

4H607-bA = target: T13, 4H607-bA
T13 chain: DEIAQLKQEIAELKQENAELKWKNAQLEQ

4H953-bA = target: T14, 4H953-bA
T14 chain: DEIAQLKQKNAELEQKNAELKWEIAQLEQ

4H568-bA = target: T15, 4H568-bA
T15 chain: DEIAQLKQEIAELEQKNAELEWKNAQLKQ

4H687-bA = target: T16, 4H687-bA
T16 chain: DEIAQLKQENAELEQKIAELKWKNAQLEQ

4H797-bA = target: T17, 4H797-bA
T17 chain: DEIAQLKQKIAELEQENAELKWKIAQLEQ

4H4001-bA = target: T18, 4H4001-bA
T18 chain: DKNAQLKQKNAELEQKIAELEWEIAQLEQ

4H462-bA = target: T19, 4H462-bA
T19 chain: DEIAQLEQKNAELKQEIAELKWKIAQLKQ

4H908-bA = target: T20, 4H908-bA
T20 chain: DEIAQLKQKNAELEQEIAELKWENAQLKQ

4H72-bA = target: T21, 4H72-bA
T21 chain: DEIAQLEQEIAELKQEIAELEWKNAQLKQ

4H883-bA = target: T22, 4H883-bA
T22 chain: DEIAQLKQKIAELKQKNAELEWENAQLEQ

4H967-bA = target: T23, 4H967-bA
T23 chain: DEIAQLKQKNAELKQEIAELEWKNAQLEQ

4H918-bA = target: T24, 4H918-bA
T24 chain: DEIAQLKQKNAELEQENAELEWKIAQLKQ

4H717-bA = target: T25, 4H717-bA
T25 chain: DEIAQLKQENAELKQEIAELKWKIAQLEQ

4H454-bA = target: T26, 4H454-bA
T26 chain: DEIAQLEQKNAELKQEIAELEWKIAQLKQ

4H754-bA = target: T27, 4H754-bA
T27 chain: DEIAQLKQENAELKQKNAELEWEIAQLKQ

interaction score (4H953-bN): -1.56 | interaction score (4H683-bN): -1.31 | interaction score (4H797-bN): -0.921 | interaction score (4H918-bN): -0.772 | interaction score (4H4073-bN): -1.77 | interaction score (4H968-bN): -1.13 | interaction score (4H855-bN): -0.729 | interaction score (4H575-bN): -1.72 | interaction score (4H457-bN): -0.816 | interaction score (4H780-bN): -0.882 | interaction score (4H754-bN): -1.18
Binder: DKNQQLKQKNQELKQKIQELKWEIQELEQ [4H4073-bN]

interaction score (O9-bH): -0.295
Binder: DENQELEKKNEELKREIWELEKEIQELER [O9-bH]

interaction score (4H607-bA): -1.34 | interaction score (4H953-bA): -1.52 | interaction score (4H568-bA): -1.47 | interaction score (4H687-bA): -1.34 | interaction score (4H797-bA): -1.28 | interaction score (4H4001-bA): -0.927 | interaction score (4H462-bA): -0.0948 | interaction score (4H908-bA): -0.992 | interaction score (4H72-bA): -1.27 | interaction score (4H883-bA): -0.688 | interaction score (4H967-bA): -1.03 | interaction score (4H918-bA): -1.15 | interaction score (4H717-bA): -2.02 | interaction score (4H454-bA): 1.01 | interaction score (4H754-bA): -1.03
Binder: DKNAQLKQKNAELEQKIAELEWEIAQLEQ [4H4001-bA]
